Values of other authors, collected in patent US20200181212A1 (priority 2014, published 2020).

Test system: trypsin
Details: cited from earlier work

asparaginase [native asparaginase]
residual activity: 5%
